Reference: patent US20260109758A1 (BIOSION, published 2026)
Like-named read-outs stand apart in the source and are kept apart here.

Experiments:
[1] = target: T1, recombinant human IL4Rα-his (human, UniProt P24394 26-231, limits assumed, biotin-labeled in the capture ELISA); experiment: dual-binding ELISA: coated human IL4Rα-his, antibody titrated, detection with biotin human TSLP-his and SA-HRP; signal needs both antigens bound
T1 construct: In-house made; not shown: His tag at the C-terminus
Method: For the dual-binding ELISA, 96-well ELISA plates were firstly coated with 100 μL 1 μg/mL human IL4Rα-his protein (IL4Rα of SEQ ID NO: 33 with His tag at C terminus, prepared in-house) in PBS overnight at 4° C. ELISA plates were washed 4 times with wash buffer (PBS+0.05% Tween-20, PBST) and then blocked with 200 μL/well blocking buffer (5% w/v non-fatty milk in PBST) for 2 hours at 37° C. […] ELISA plates were washed again and incubated with SA-HRP (100 μl/well) for 40 minutes at 37° C. After the final wash, 100 μL/well TMB (Innoreagents) was added. The reaction was stopped 15 minutes later at room temperature with 50 μL/well 1M H₂SO₄, and the absorbance was read on a microplate reader using dual wavelength mode with 450 nm for TMB and 630 nm as the reference wavelength. The OD (450-630) values were plotted against antibody concentration. Data was analyzed using Graphpad Prism and EC₅₀ values were reported.

[2] = target: T2, recombinant human TSLP-his (human, UniProt Q969D9 29-159, biotin-labeled in the ELISAs); experiment: capture ELISA: antibody captured on anti-human IgG Fc F(ab')2, biotin human TSLP-his, SA-HRP
T2 construct: In-house made; not shown: His tag at the C-terminus
Method: Briefly, 96-well micro plates were coated with 100 μL 2 μg/mL AffiniPure F(ab′)₂ Fragment Goat Anti-Human IgG, Fey fragment specific (Jackson Immuno Research, Cat #109-006-008) in PBS and incubated overnight at 4° C. Plates were washed 4 times with wash buffer (PBS+0.05% Tween-20, PBST) and then blocked with 200 μL/well blocking buffer (5% w/v non-fatty milk in PBST) for 2 hours at 37° C. […] After the final wash, the plates were incubated with 100 μL/well TMB (Innoreagents). The reaction was stopped 15 minutes later at room temperature with 50 μL/well 1M H₂SO₄, and the absorbance of each well was read on a microplate reader using dual wavelength mode with 450 nm for TMB and 630 nm as the reference wavelength. The OD (450-630) values were plotted against antibody concentration. Data was analyzed using Graphpad Prism and EC₅₀ values were reported.

[3] = target: T2, recombinant human TSLP-his; experiment: SPR Biacore; TSLP-his amine-coupled to CM5 chip, antibody as analyte; 1:1 Langmuir fit
Method: Un-reacted moieties on the biosensor surface were blocked with ethanolamine. Then, serially diluted purified bispecific antibodies and the controls (2-fold serial dilution in HBS-EP⁺ buffer starting at 100 nM) were respectively flowed onto the chip at a flow rate of 30 μL/min. The antigen-antibody association kinetics was followed for 4 minutes and the dissociation kinetics was followed for 13 minutes.

[4] = target: T1, recombinant human IL4Rα-his; experiment: SPR Biacore T200; antibody captured on anti-human IgG CM5 chip, IL4Rα-his as analyte; 1:1 Langmuir fit
In short: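 Antibodies captured on anti-human IgG CM5 chip (bispecifics at 66.67 nM, controls 10 μg/mL), then serially diluted recombinant human IL4Rα-his (C-terminal His tag) in HBS EP flowed at 30 μL/min. Association and dissociation curves fit to 1:1 Langmuir model.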

[5] = target: T3, biotin-labeled human TSLP-Fc (human, biotin-labeled); experiment: cell-based blocking FACS: antibody pre-mixed with biotin human TSLP-Fc; blocked binding to cell-surface TSLPR/IL7Ra on HEK293T-TSLPR/IL7R/STAT5-Luc 5C5 cells
T3 construct: also called TSLP-Fc protein; TSLP-Fc-biotin

[6] = target: T2, recombinant human TSLP-his; experiment: capture ELISA: antibody captured on anti-human IgG Fc F(ab')2, biotin human TSLP-his, SA-HRP; remark: listed apart in the source

Binder	EC50 [1]	EC50 [2]	Kd [3]	koff [3]	kon [3]	Kd [4]	koff [4]	kon [4]	IC50 [5]	EC50 [6]
BSI-502-004 (bispecific antibody, human IgG1, kappa, hu1C5F12E9-V8 IgG with an anti-IL4R scFv (VL-VH) at the N-terminus of the heavy chain; AQQ and YTE already stand in the entry) heavy: DIQMTQSPSSLSASVGDRVTITCRTSENIYSYLAWYQQKPGKAPKFLVYNAKTLAEGVPSRFSGSGSGTDFTLTISSLQPEDFATYYCQHYYGPPTWTFGQGTKVEIKGGGGSGGGGSGGGGSGGGGSEVQLVESGGGLVQPGGSLRLSCAASGFTFSTYGMSWVRQAPGKGLVWVATINSNGGSTSYPDSVKGRFTISRDNAKNTLYLQMNSLRAEDTAVYYCARFFRFRNAMDYWGQGTLVTVSSGGGGSGGGGSQVQLVQSGAEVKKPGASVKVSCKASGYTFTTYWMHWVRQAPGQGLEWMGVIDPSDSDTTYNQKFKGRVTMTRDTSTSTVYMELSSLRSEDTAVYYCTRSLDGYYDYWGQGTLVTVSSASTKGPSVFPLAPSSKSTSGGTAALGCLVKDYFPEPVTVSWNSGALTSGVHTFPAVLQSSGLYSLSSVVTVPSSSLGTQTYICNVNHKPSNTKVDKKVEPKSCDKTHTCPPCPAPEAQGGPSVFLFPPKPKDTLYITREPEVTCVVVDVSHEDPEVKFNWYVDGVEVHNAKTKPREEQYNSTYRVVSVLTVLHQDWLNGKEYKCQVSNKALPAPIEKTISKAKGQPREPQVYTLPPSRDELTKNQVSLTCLVKGFYPSDIAVEWESNGQPENNYKTTPPVLDSDGSFFLYSKLTVDKSRWQQGNVFSCSVMHEALHNHYTQKSLSLSPG light: DIQMTQSPSSLSASVGDRVTITCRPTENIYSYLAWYQQKPGKAPKLLIYFARTLAEGVPSRFSGSGSGTDFTLTISSLQPEDFATYYCQHHYGTPWTFGGGTKVEIKRTVAAPSVFIFPPSDEQLKSGTASVVCLLNNFYPREAKVQWKVDNALQSGNSQESVTEQDSKDSTYSLSSTLTLSKADYEKHKVYACEVTHQGLSSPVTKSFNRGEC	0.0652 nM	0.103 nM	0.00342 nM	1.71e-06 s⁻¹	499000 M⁻¹ s⁻¹	2.43 nM	0.000453 s⁻¹	186000 M⁻¹ s⁻¹	1.31 nM	
BSI-502-001 (bispecific antibody, human IgG1, kappa, huC2C1A1A1-V15 IgG with an anti-TSLP scFv (hu1C5F12E9-V8, VH-VL) at the C-terminus of the heavy chain) heavy: EVQLVESGGGLVQPGGSLRLSCAASGFTFSTYGMSWVRQAPGKGLVWVATINSNGGSTSYPDSVKGRFTISRDNAKNTLYLQMNSLRAEDTAVYYCARFFRFRNAMDYWGQGTLVTVSSASTKGPSVFPLAPSSKSTSGGTAALGCLVKDYFPEPVTVSWNSGALTSGVHTFPAVLQSSGLYSLSSVVTVPSSSLGTQTYICNVNHKPSNTKVDKKVEPKSCDKTHTCPPCPAPEAQGGPSVFLFPPKPKDTLYITREPEVTCVVVDVSHEDPEVKFNWYVDGVEVHNAKTKPREEQYNSTYRVVSVLTVLHQDWLNGKEYKCQVSNKALPAPIEKTISKAKGQPREPQVYTLPPSRDELTKNQVSLTCLVKGFYPSDIAVEWESNGQPENNYKTTPPVLDSDGSFFLYSKLTVDKSRWQQGNVFSCSVMHEALHNHYTQKSLSLSPGKGGGGSGGGGSQVQLVQSGAEVKKPGASVKVSCKASGYTFTTYWMHWVRQAPGQGLEWMGVIDPSDSDTTYNQKFKGRVTMTRDTSTSTVYMELSSLRSEDTAVYYCTRSLDGYYDYWGQGTLVTVSSGGGGSGGGGSGGGGSGGGGSDIQMTQSPSSLSASVGDRVTITCRPTENIYSYLAWYQQKPGKAPKLLIYFARTLAEGVPSRFSGSGSGTDFTLTISSLQPEDFATYYCQHHYGTPWTFGGGTKVEIK light: DIQMTQSPSSLSASVGDRVTITCRTSENIYSYLAWYQQKPGKAPKFLVYNAKTLAEGVPSRFSGSGSGTDFTLTISSLQPEDFATYYCQHYYGPPTWTFGQGTKVEIKRTVAAPSVFIFPPSDEQLKSGTASVVCLLNNFYPREAKVQWKVDNALQSGNSQESVTEQDSKDSTYSLSSTLTLSKADYEKHKVYACEVTHQGLSSPVTKSFNRGEC	0.0349 nM	0.169 nM	< 0.0246 nM	< 1e-05 s⁻¹	407000 M⁻¹ s⁻¹	3.09 nM	0.000497 s⁻¹	161000 M⁻¹ s⁻¹	1.73 nM	
BSI-502-008 (bispecific antibody, human IgG1, kappa, huC2C1A1A1-V15 IgG with an anti-TSLP scFv (VL-VH) at the N-terminus of the heavy chain; AQQ and YTE already stand in the entry) heavy: DIQMTQSPSSLSASVGDRVTITCRPTENIYSYLAWYQQKPGKAPKLLIYFARTLAEGVPSRFSGSGSGTDFTLTISSLQPEDFATYYCQHHYGTPWTFGGGTKVEIKGGGGSGGGGSGGGGSGGGGSQVQLVQSGAEVKKPGASVKVSCKASGYTFTTYWMHWVRQAPGQGLEWMGVIDPSDSDTTYNQKFKGRVTMTRDTSTSTVYMELSSLRSEDTAVYYCTRSLDGYYDYWGQGTLVTVSSGGGGSGGGGSEVQLVESGGGLVQPGGSLRLSCAASGFTFSTYGMSWVRQAPGKGLVWVATINSNGGSTSYPDSVKGRFTISRDNAKNTLYLQMNSLRAEDTAVYYCARFFRFRNAMDYWGQGTLVTVSSASTKGPSVFPLAPSSKSTSGGTAALGCLVKDYFPEPVTVSWNSGALTSGVHTFPAVLQSSGLYSLSSVVTVPSSSLGTQTYICNVNHKPSNTKVDKKVEPKSCDKTHTCPPCPAPEAQGGPSVFLFPPKPKDTLYITREPEVTCVVVDVSHEDPEVKFNWYVDGVEVHNAKTKPREEQYNSTYRVVSVLTVLHQDWLNGKEYKCQVSNKALPAPIEKTISKAKGQPREPQVYTLPPSRDELTKNQVSLTCLVKGFYPSDIAVEWESNGQPENNYKTTPPVLDSDGSFFLYSKLTVDKSRWQQGNVFSCSVMHEALHNHYTQKSLSLSPG light: DIQMTQSPSSLSASVGDRVTITCRTSENIYSYLAWYQQKPGKAPKFLVYNAKTLAEGVPSRFSGSGSGTDFTLTISSLQPEDFATYYCQHYYGPPTWTFGQGTKVEIKRTVAAPSVFIFPPSDEQLKSGTASVVCLLNNFYPREAKVQWKVDNALQSGNSQESVTEQDSKDSTYSLSSTLTLSKADYEKHKVYACEVTHQGLSSPVTKSFNRGEC	0.107 nM		0.00758 nM	4.43e-06 s⁻¹	585000 M⁻¹ s⁻¹	3.15 nM	0.000436 s⁻¹	138000 M⁻¹ s⁻¹		0.0742 nM
BSI-502-002 (bispecific antibody, human IgG1, kappa, huC2C1A1A1-V15 IgG with an anti-TSLP scFv (VL-VH) at the C-terminus of the heavy chain; AQQ and YTE already stand in the entry) heavy: EVQLVESGGGLVQPGGSLRLSCAASGFTFSTYGMSWVRQAPGKGLVWVATINSNGGSTSYPDSVKGRFTISRDNAKNTLYLQMNSLRAEDTAVYYCARFFRFRNAMDYWGQGTLVTVSSASTKGPSVFPLAPSSKSTSGGTAALGCLVKDYFPEPVTVSWNSGALTSGVHTFPAVLQSSGLYSLSSVVTVPSSSLGTQTYICNVNHKPSNTKVDKKVEPKSCDKTHTCPPCPAPEAQGGPSVFLFPPKPKDTLYITREPEVTCVVVDVSHEDPEVKFNWYVDGVEVHNAKTKPREEQYNSTYRVVSVLTVLHQDWLNGKEYKCQVSNKALPAPIEKTISKAKGQPREPQVYTLPPSRDELTKNQVSLTCLVKGFYPSDIAVEWESNGQPENNYKTTPPVLDSDGSFFLYSKLTVDKSRWQQGNVFSCSVMHEALHNHYTQKSLSLSPGKGGGGSGGGGSDIQMTQSPSSLSASVGDRVTITCRPTENIYSYLAWYQQKPGKAPKLLIYFARTLAEGVPSRFSGSGSGTDFTLTISSLQPEDFATYYCQHHYGTPWTFGGGTKVEIKGGGGSGGGGSGGGGSGGGGSQVQLVQSGAEVKKPGASVKVSCKASGYTFTTYWMHWVRQAPGQGLEWMGVIDPSDSDTTYNQKFKGRVTMTRDTSTSTVYMELSSLRSEDTAVYYCTRSLDGYYDYWGQGTLVTVSS light: DIQMTQSPSSLSASVGDRVTITCRTSENIYSYLAWYQQKPGKAPKFLVYNAKTLAEGVPSRFSGSGSGTDFTLTISSLQPEDFATYYCQHYYGPPTWTFGQGTKVEIKRTVAAPSVFIFPPSDEQLKSGTASVVCLLNNFYPREAKVQWKVDNALQSGNSQESVTEQDSKDSTYSLSSTLTLSKADYEKHKVYACEVTHQGLSSPVTKSFNRGEC	0.136 nM	0.369 nM	< 0.0472 nM	< 1e-05 s⁻¹	212000 M⁻¹ s⁻¹	1.51 nM	0.000487 s⁻¹	323000 M⁻¹ s⁻¹	4.23 nM	
